B1: Adenosine deaminase, P03958 (parent)
chain: MAQTPAFNKPKVELHVHLDGAIKPETILYFGKKRGIALPADTVEELRNIIGMDKPLSLPGFLAKFDYYMPVIAGCREAIKRIAYEFVEMKAKEGVVYVEVRYSPHLLANSKVDPMPWNQTEGDVTPDDVVDLVNQGLQEGEQAFGIKVRSILCCMRHQPSWSLEVLELCKKYNQKTVVAMDLAGDETIEGSSLFPGHVEAYEGAVKNGIHRTVHAGEVGSPEVVREAVDILKTERVGHGYHTIEDEALYNRLLKENMHFEVCPWSSYLTGAWDPKTTHAVVRFKNDKANYSLNTDDPLIFKSTLDTDYQMTKKDMGFTEEEFKRLNINAAKSSFLPEEEKKELLERLYREYQ

In this data set the parent is B1. To be noted: Mus musculus; pH 7.4; 20 °C; Urea; NMR; Tris-HCl 20 mM; structure 2ADA; whole UniProt chain shown.

“And” between values parts separate entries of the source, which are not always exact repeats. Equal entries are not always repeated.

Turning to W272F, the denaturant m value was 1.05 kcal/mol/M and 2.25 kcal/mol/M; the “denaturant midpoint (higher = more stable)” value (“denaturant midpoint” below) was 5.42 M and 5.58 M; the unfolding free energy is 5.69 kcal/mol and 12.6 kcal/mol.
Regarding W117F, the “ddG of mutation (higher = less stable)” value was -2.96 kcal/mol and -6.52 kcal/mol; the denaturant m value was 1.31 kcal/mol/M and 1.96 kcal/mol/M; the “denaturant midpoint” value is 5.65 M and 5.59 M; the unfolding free energy is 7.4 kcal/mol and 11 kcal/mol.
In the case of W161F, the “ddG of mutation (higher = less stable)” value is -8.7 kcal/mol and -5.98 kcal/mol; the denaturant m value is 2.48 kcal/mol/M and 1.87 kcal/mol/M; the “denaturant midpoint” value was 5.3 M and 5.57 M; the unfolding free energy was 13.1 kcal/mol and 10.4 kcal/mol.
